Experimental data published in paper PMC10786891, “Massively parallel profiling of RNA-targeting CRISPR-Cas13d”.
Where a chain is given by its changes, count along the chain named. Names and notes keep the numbering of the source.

T1: EsCas13d, nuclease-dead (Eubacterium siraeum, UniProt B0MS50, R295A;H300A;R849A;H854A)
T1 sequence: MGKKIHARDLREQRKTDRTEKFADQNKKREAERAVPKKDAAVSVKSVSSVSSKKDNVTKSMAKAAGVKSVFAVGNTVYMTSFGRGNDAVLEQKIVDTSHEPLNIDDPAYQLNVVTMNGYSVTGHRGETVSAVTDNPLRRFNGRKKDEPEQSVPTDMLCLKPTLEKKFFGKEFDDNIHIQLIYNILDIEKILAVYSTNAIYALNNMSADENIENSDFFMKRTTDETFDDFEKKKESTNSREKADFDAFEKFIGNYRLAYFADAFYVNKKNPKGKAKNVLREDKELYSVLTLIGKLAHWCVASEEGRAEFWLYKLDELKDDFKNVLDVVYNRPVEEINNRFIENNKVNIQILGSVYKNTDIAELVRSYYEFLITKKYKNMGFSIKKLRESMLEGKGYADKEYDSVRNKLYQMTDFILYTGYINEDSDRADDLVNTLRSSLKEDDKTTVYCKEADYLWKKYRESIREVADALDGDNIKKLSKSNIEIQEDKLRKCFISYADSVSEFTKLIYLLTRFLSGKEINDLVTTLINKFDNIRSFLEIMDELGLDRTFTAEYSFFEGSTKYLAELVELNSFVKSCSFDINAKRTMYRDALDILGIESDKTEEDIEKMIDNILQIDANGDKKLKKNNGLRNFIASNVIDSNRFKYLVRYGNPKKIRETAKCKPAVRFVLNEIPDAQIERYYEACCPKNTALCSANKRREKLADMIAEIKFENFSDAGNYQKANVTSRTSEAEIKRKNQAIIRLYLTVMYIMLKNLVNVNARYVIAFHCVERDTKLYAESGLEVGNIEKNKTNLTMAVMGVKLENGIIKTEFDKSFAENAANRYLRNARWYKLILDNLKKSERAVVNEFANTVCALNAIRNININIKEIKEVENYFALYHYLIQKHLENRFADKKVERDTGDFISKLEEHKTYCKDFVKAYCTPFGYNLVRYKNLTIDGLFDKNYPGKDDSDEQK

B1: target 3 insC 3' of 10,insC 3' of 3 (mixed)
RNA 1: CACCCGUGCAAAAUUGCAGGGGUCUAAAACGACCUGAAUAUUUCAGAUCAAA
RNA 2: GGGAAUGGAUCCACAUCUACGAAUUCGUUUUUGAUCUGAAAUCAUUCAGGCUCUGCAGAUCGGAAGAGCACACGU
B2: target 3 insC 3' of 22,insU 3' of 22 (mixed)
RNA 1: B1 RNA 1
RNA 2: GGGAAUGGAUCCACAUCUACGAAUUCGUUUCUUUGAUCUGAAAUAUUCAGGUCUGCAGAUCGGAAGAGCACACGU
B3: target 3 U2G,C6U (mixed)
RNA 1: B1 RNA 1
RNA 2: GGGAAUGGAUCCACAUCUACGAAUUCGUUUUUGAUCUGAAAUAUUUAGGGCUGCAGAUCGGAAGAGCACACGU
B4: target 3 insC 3' of 9,insC 3' of 7 (mixed)
RNA 1: B1 RNA 1
RNA 2: B1 RNA 2 with C43A, A44C, A48C, G49A, C51G
B5: target 3 C6G,U7C (mixed)
RNA 1: B1 RNA 1
RNA 2: B3 RNA 2 with U45C, U46G, G50U
B6: target 3 A9G,U22G (mixed)
RNA 1: B1 RNA 1
RNA 2: B3 RNA 2 with U30G, A43G, U46C, G50U
B7: target 3 G3A,C6A (mixed)
RNA 1: B1 RNA 1
RNA 2: B3 RNA 2 with U46A, G49A, G50U
B8: target 3 G3U,U7A (mixed)
RNA 1: B1 RNA 1
RNA 2: B3 RNA 2 with U45A, U46C, G49U, G50U
B9: target 3 insC 3' of 5,insC 3' of 4 (mixed)
RNA 1: B1 RNA 1
RNA 2: B1 RNA 2 with C43A, A44U, U46C, C47A, A48C, G50C, C51G
B10: target 3 A18G (mixed)
RNA 1: B1 RNA 1
RNA 2: B3 RNA 2 with A34G, U46C, G50U
B11: target 3 A9G,A18G (mixed)
RNA 1: B1 RNA 1
RNA 2: B3 RNA 2 with A34G, A43G, U46C, G50U
B12: target 3 insA 3' of 22,insG 3' of 22 (mixed)
RNA 1: B1 RNA 1
RNA 2: B2 RNA 2 with C31A, U32G
B13: target 3 G4C,A5U (mixed)
RNA 1: B1 RNA 1
RNA 2: B3 RNA 2 with U46C, A47U, G48C, G50U
B14: target 3 U2A,C6A (mixed)
RNA 1: B1 RNA 1
RNA 2: B3 RNA 2 with U46A, G50A
B15: target 3 insC 3' of 7,insC 3' of 3 (mixed)
RNA 1: B1 RNA 1
RNA 2: B1 RNA 2 with C43A, A44U, U46C
B16: target 3 U2G,U8G (mixed)
RNA 1: B1 RNA 1
RNA 2: B3 RNA 2 with U44G, U46C
B17: target 3 C1A,A5C (mixed)
RNA 1: B1 RNA 1
RNA 2: B3 RNA 2 with U46C, A47C, G50U, C51A
B18: target 3 C1A,A18G (mixed)
RNA 1: B1 RNA 1
RNA 2: B3 RNA 2 with A34G, U46C, G50U, C51A
B19: target 3 A5G,C6U (mixed)
RNA 1: B1 RNA 1
RNA 2: B3 RNA 2 with A47G, G50U
B20: target 3 insU 3' of 5,insC 3' of 3 (mixed)
RNA 1: B1 RNA 1
RNA 2: B1 RNA 2 with C43A, A44U, U46C, C47A, A48U
B21: target 3 insU 3' of 22,insU 3' of 16 (mixed)
RNA 1: B1 RNA 1
RNA 2: B2 RNA 2 with C31U, U34G, G35A, A36U, U37C, C38U
B22: target 3 U2A,C6U (mixed)
RNA 1: B1 RNA 1
RNA 2: B3 RNA 2 with G50A
B23: target 3 C1U,A18G (mixed)
RNA 1: B1 RNA 1
RNA 2: B3 RNA 2 with A34G, U46C, G50U, C51U
B24: target 3 insC 3' of 21,insC 3' of 3 (mixed)
RNA 1: B1 RNA 1
RNA 2: GGGAAUGGAUCCACAUCUACGAAUUCGUUUUCUGAUCUGAAAUAUUCAGGCUCUGCAGAUCGGAAGAGCACACGU
B25: target 3 insC 3' of 3,insA 3' of 3 (mixed)
RNA 1: B1 RNA 1
RNA 2: B1 RNA 2 with C43A, A44U, U46C, C47A, A48G, G50C, C51A
B26: target 3 insC 3' of 22,insG 3' of 6 (mixed)
RNA 1: B1 RNA 1
RNA 2: B24 RNA 2 with U31C, C32U, A48G, G49A, C51G
B27: target 3 C1U,G3C (mixed)
RNA 1: B1 RNA 1
RNA 2: B3 RNA 2 with U46C, G49C, G50U, C51U
B28: target 3 insA 3' of 4,insA 3' of 4 (mixed)
RNA 1: B1 RNA 1
RNA 2: B1 RNA 2 with C43A, A44U, U46C, C47A, A48G, G49A, G50A, C51G
B29: target 3 G4U,C6G (mixed)
RNA 1: B1 RNA 1
RNA 2: B3 RNA 2 with U46G, G48U, G50U
B30: target 3 G3C,A5U (mixed)
RNA 1: B1 RNA 1
RNA 2: B3 RNA 2 with U46C, A47U, G49C, G50U
B31: target 1 insG 3' of 19,insU 3' of 13 (mixed)
RNA 1: CACCCGUGCAAAAAUGCAGGGGUCUAAAACUGAGCGGAUAACCUCUCUAUGG
RNA 2: GGGAAUGGAUCCACAUCUACGAAUUCGUACCAUGAGAGAGUGUUAUCCGCUCACCGAGAUCGGAAGAGCACACGU
B32: target 1 insG 3' of 16,insG 3' of 4 (mixed)
RNA 1: B31 RNA 1
RNA 2: GGGAAUGGAUCCACAUCUACGAAUUCGUACCAUAGAGGAGGUUAUCCGCGUCACCGAGAUCGGAAGAGCACACGU
B33: target 1 G12A,A18U (mixed)
RNA 1: B31 RNA 1
RNA 2: GGGAAUGGAUCCACAUCUACGAAUUCGUACCAUUGAGAGAUUAUCCGCUCACCGAGAUCGGAAGAGCACACGU

The binders below were run against T1, EsCas13d, nuclease-dead (assay: crRNA (strand 1, pre-loaded); Mg2+; 40 mM Tris-HCl pH 7.5, 150 mM NaCl, 6 mM MgCl2, 1 mM DTT, 0.1% Tween-20, 0.2 mg/ml BSA; 25 C; 10 min per concentration, then washed). Conditions: tags: His6-TwinStrep-SUMO cleaved; N-terminal SNAP kept (SNAP-Surface 488); label: 3' end held by stalled T7 RNA polymerase.
Work on B1 yielded a Kd of about 96 nM. With B2 the Kd was 19.1 ± 3.15 nM. B3 showed a Kd of 2.4 ± 0.255 nM. In the case of B4, the Kd is reported as 113 ± 50.5 nM. In the case of B5, the Kd is reported as 60.5 ± 5 nM. With B6 the Kd was 69.5 ± 16.5 nM. B7 was tested, and the Kd was 51.5 ± 5.5 nM. B8 was tested, and the Kd was 37 ± 4.5 nM. With B9 the Kd was 11.6 ± 0.65 nM. B10 was tested, and the Kd was 19.1 ± 1.7 nM. B11 gave a Kd of 26.4 ± 2.95 nM. For B12, the Kd was 48 ± 7 nM. For B13, the Kd was 42.5 ± 10 nM. B14 showed a Kd of 15.6 ± 1.9 nM. B15 showed a Kd of 97 ± 33 nM. In the case of B16, the Kd is reported as 47 ± 14.5 nM. Work on B17 yielded a Kd of 58.5 ± 10 nM. B18 gave a Kd of 48.5 ± 14 nM. For B19, the Kd was 11.5 ± 1.3 nM. With B20 the Kd was 10.9 ± 1.1 nM. Work on B21 yielded a Kd of 58 ± 9 nM. B22 gave a Kd of 4.55 ± 0.43 nM. Work on B23 yielded a Kd of 43 ± 7 nM. With B24 the Kd was 80 ± 30.5 nM. Work on B25 yielded a Kd of 9.35 ± 1.15 nM. B26 showed a Kd of 22.1 ± 2.45 nM. With B27 the Kd was 49.5 ± 15.5 nM. With B28 the Kd was 21.1 ± 3.3 nM. B29 was tested, and the Kd was 68.5 ± 15 nM. For B30, the Kd was 25 ± 2.6 nM. For B31, the Kd was 51 ± 20 nM. In the case of B32, the Kd is reported as 13.7 ± 0.7 nM. Work on B33 yielded a Kd of 25.2 ± 2.7 nM.
